Laboratory results as given in patent publication US20240124545A1, “COMPOSITIONS AND METHODS RELATING TO THE TREATMENT OF DISEASES” (ILC THERAPEUTICS LIMITED, priority 2021, published 2024).
“And” between values parts separate entries of the source, which are not always exact repeats. Identical values can stand only once. Like-named read-outs stand apart in the source and are kept apart here.

Experiments:
HRSV Long strain = assay: HRSV infectivity assay, immunostaining readout in HEp-2 cells; format: cell-based, human respiratory syncytial virus (HRSV) Long strain; details: for HRSV Infectivity in HEp-2 cells (% vehicle): 72 hours, average of duplicates; for HRSV Infectivity in HEp-2 cells - Raw OD- Absorbance (490 nm): duplicate A490 values
HIV-1 LAI [1] = assay: HIV-1 LAI infectivity assay with β-galactosidase readout (Experiment 5); format: cell-based, human immunodeficiency virus type 1 (HIV-1) LAI strain; details: for HIV-1 Infectivity in HeLa-CD4-βgal cells (% vehicle): mean of duplicates; for HIV Infectivity in HeLa CD4 βgal cells (β-galactosidase units): individual values
[2] = tested on: SK-OV-3 NucLight Red cells co-cultured with natural killer (NK) cells; assay: Live cell imaging assay of immune cell killing (IncuCyte ZOOM); format: cell-based
Method: The effect of a hybrid recombinant interferon was tested in a live cell imaging assay of immune cell killing on an IncuCyte ZOOM platform. SK-OV-3 ovarian cancer cells with red labelled nuclei (SK-OV-3 NucLight Red) were used as target cells in the study. For immune cell killing, the cells were co-cultured with natural killer (NK) cells and positive controls consisted of cells treated with IL-2 and IL-12. Apoptosis was detected by staining caspase 3/7 positive objects while cell number was determined by counting of red nuclei. […] An initial optimisation experiment was carried out that tested 4 ratios of target and effector cells. […] Results were compared to no treatment controls, vehicle treated controls and IL-2/IL-12 treated cells. All conditions were tested using cells in co-culture (SK-OV-3 NucLight and NK cells) and mono-culture (SK-OV-3 NucLight Red). Cells were monitored for 4 days using an IncuCyte ZOOM, and IncuCyte software was used to measure green (apoptosis) and red (cell number) object count over time. Area under the curve (AUC) analysis was used to quantitate apoptosis and cell number over the time course.

natural killer cells = assay: NK cell monoculture model (cell clustering); format: cell-based
IL-17A = assay: Suppression of IL-17A synthesis; format: cell-based
IL 17F = assay: Suppression of IL-17F; format: cell-based; details: listed as Hybrid 2
SARS-CoV-1 [3] = format: cell-based, SARS-HCoV2003VA2774; details: Vero E6 cells
SARS-CoV-1 [4] = format: cell-based
human RSV = assay: Plaque assay with human RSV (FIG. 9); format: cell-based
[5] = tested on: Herpes Simplex Virus Type 1 (HSV1); assay: HSV1 infection of primary human keratinocytes; format: cell-based
HIV-1 LAI [6] = details: for HIV Infectivity in HeLa-CD4-βgal cells (% vehicle): 48 hours
HeLa-CD4-βgal cells [7] = tested on: HeLa-CD4-βgal cells
HeLa-CD4-βgal cells [8] = tested on: HeLa-CD4-βgal cells; remark: listed apart in the source

B1: Sample B: recombinant IFN-α10-IFN-α14 hybrid interferon alpha, amino acid sequence SEQ ID NO:3; sample B in Experiments 4 and 5 (protein)
chain: CDLPQTHSLGNRRALILLGQMGRISPFSCLKDRHDFRIPQEEFDGNQFQKAQAISVLHEMMQQTFNLFSTKNSSAAWDETLLEKFYIELFQQMNDLEACVIQEVGVEETPLMNEDSILAVKKYFQRITLYLIERKYSPCAWEVVRAEIMRSLSFSTNLQKRLRRKD
HRSV Infectivity in HEp-2 cells (% vehicle) (HRSV Long strain; 0.001 ng/mL): 91.5 % vehicle
HRSV Infectivity in HEp-2 cells - Raw OD- Absorbance (490 nm) (HRSV Long strain; 0.001 ng/mL): 0.647 and 0.675
HRSV Infectivity in HEp-2 cells (% vehicle) (HRSV Long strain; 0.01 ng/mL): 71.3 % vehicle
HRSV Infectivity in HEp-2 cells - Raw OD- Absorbance (490 nm) (HRSV Long strain; 0.01 ng/mL): 0.550 and 0.573
HRSV Infectivity in HEp-2 cells (% vehicle) (HRSV Long strain; 0.1 ng/mL): 27.6 % vehicle
HRSV Infectivity in HEp-2 cells - Raw OD- Absorbance (490 nm) (HRSV Long strain; 0.1 ng/mL): 0.353 and 0.338
HRSV Infectivity in HEp-2 cells (% vehicle) (HRSV Long strain; 1.0 ng/mL): 9.7 % vehicle
HRSV Infectivity in HEp-2 cells - Raw OD- Absorbance (490 nm) (HRSV Long strain; 1.0 ng/mL): 0.244 and 0.270
HRSV Infectivity in HEp-2 cells (% vehicle) (HRSV Long strain; 10 ng/mL): 12.3 % vehicle
HRSV Infectivity in HEp-2 cells - Raw OD- Absorbance (490 nm) (HRSV Long strain; 10 ng/mL): 0.248 and 0.292
HRSV Infectivity in HEp-2 cells (% vehicle) (HRSV Long strain; 100 ng/mL): 11.9 % vehicle
HRSV Infectivity in HEp-2 cells - Raw OD- Absorbance (490 nm) (HRSV Long strain; 100 ng/mL): 0.283 and 0.253
HRSV Infectivity in HEp-2 cells (% vehicle) (HRSV Long strain; 1,000 ng/mL): 9.6 % vehicle
HRSV Infectivity in HEp-2 cells - Raw OD- Absorbance (490 nm) (HRSV Long strain; 1,000 ng/mL): 0.262 and 0.251
HRSV Infectivity in HEp-2 cells (% vehicle) (HRSV Long strain; 10,000 ng/mL): 6.6 % vehicle
HRSV Infectivity in HEp-2 cells - Raw OD- Absorbance (490 nm) (HRSV Long strain; 10,000 ng/mL): 0.252 and 0.230
IC50 (infectivity), HRSV Antiviral Assay (HRSV Long strain; HRSV Long, Hep-2 cells, 3 days): 0.03 ng/mL and 0.027 ng/mL
HIV-1 Infectivity in HeLa-CD4-βgal cells (% vehicle) (HIV-1 LAI [1]; 0.0001 ng/mL, 48 hours): 102.4 % vehicle
HIV Infectivity in HeLa CD4 βgal cells (β-galactosidase units) (HIV-1 LAI [1]; 0.0001 ng/mL): 971,384 RLU and 1,112,752 RLU
HIV-1 Infectivity in HeLa-CD4-βgal cells (% vehicle) (HIV-1 LAI [1]; 0.001 ng/mL, 48 hours): 96.3 % vehicle
HIV Infectivity in HeLa CD4 βgal cells (β-galactosidase units) (HIV-1 LAI [1]; 0.001 ng/mL): 1,062,736 RLU and 896,209 RLU
HIV-1 Infectivity in HeLa-CD4-βgal cells (% vehicle) (HIV-1 LAI [1]; 0.01 ng/mL, 48 hours): 77.7 % vehicle
HIV Infectivity in HeLa CD4 βgal cells (β-galactosidase units) (HIV-1 LAI [1]; 0.01 ng/mL): 761,455 RLU and 820,758 RLU
HIV-1 Infectivity in HeLa-CD4-βgal cells (% vehicle) (HIV-1 LAI [1]; 0.1 ng/mL, 48 hours): 58.0 % vehicle
HIV Infectivity in HeLa CD4 βgal cells (β-galactosidase units) (HIV-1 LAI [1]; 0.1 ng/mL): 588,618 RLU and 595,007 RLU
HIV-1 Infectivity in HeLa-CD4-βgal cells (% vehicle) (HIV-1 LAI [1]; 1 ng/mL, 48 hours): 36.0 % vehicle
HIV Infectivity in HeLa CD4 βgal cells (β-galactosidase units) (HIV-1 LAI [1]; 1.0 ng/mL): 343,482 RLU and 394,833 RLU
HIV-1 Infectivity in HeLa-CD4-βgal cells (% vehicle) (HIV-1 LAI [1]; 10 ng/mL, 48 hours): 30.2 % vehicle
HIV Infectivity in HeLa CD4 βgal cells (β-galactosidase units) (HIV-1 LAI [1]; 10 ng/mL): 302,405 RLU and 317,823 RLU
HIV-1 Infectivity in HeLa-CD4-βgal cells (% vehicle) (HIV-1 LAI [1]; 100 ng/mL, 48 hours): 28.9 % vehicle
HIV Infectivity in HeLa CD4 βgal cells (β-galactosidase units) (HIV-1 LAI [1]; 100 ng/mL): 278,916 RLU and 314,495 RLU
HIV-1 Infectivity in HeLa-CD4-βgal cells (% vehicle) (HIV-1 LAI [1]; 1,000 ng/mL, 48 hours): 30.7 % vehicle
HIV Infectivity in HeLa CD4 βgal cells (β-galactosidase units) (HIV-1 LAI [1]; 1,000 ng/mL): 299,975 RLU and 330,705 RLU
HIV-1 Infectivity in HeLa-CD4-βgal cells (% vehicle) (HIV-1 LAI [1]; 10,000 ng/mL, 48 hours): 31.5 % vehicle
HIV Infectivity in HeLa CD4 βgal cells (β-galactosidase units) (HIV-1 LAI [1]; 10,000 ng/mL): 300,821 RLU and 344,654 RLU
IC50 (infectivity), HIV-1 Antiviral Assay (HeLa-CD4-Bgal cells) (HIV-1 LAI [1]; HIV-1 LAI, 48 hours): 0.03 ng/mL
infection signal still observed (HIV-1 LAI [1]; highest concentrations tested (10 μg/mL)): about 25%
IC50 for the reduction in cell number [2]: 1.3×10^6 IU/ml
apoptosis response of cells in mono-culture ([2]; SK-OV-3 NucLight Red mono-culture): only a marginal response
EC50 for apoptosis induction ([2]; co-culture model): 1.5×10^6 IU/ml
AUC of apoptosis (caspase 3/7 positive object count over time) ([2]; co-culture model, top dose (3×10^6 IU/ml), 4 days, vehicle controls 200): 1174
AUC values for cell number (red nuclei count over time) ([2]; top dose, vehicle controls 39921): 19501
direct activation of natural killer cells (cell clustering) (natural killer cells): very strong direct activation of natural killer cells
suppression of IL-17A synthesis (IL-17A; listed as HYBRID 2): suppression of IL-17A synthesis
suppression of IL-17A synthesis (IL-17A; listed as Hybrid 2): inhibits both 17 A and F very strongly
suppression of IL 17F (IL 17F): inhibits both 17 A and F very strongly
inhibition of the cytopathic effect following SARS-CoV-1 infection (SARS-CoV-1 [3]): inhibit the cytopathic effect
inhibition of plaque formation following SARS-CoV-1 infection (SARS-CoV-1 [4]): inhibit the cytopathic effect and plaque formation
inhibition of a plaque assay with human RSV (human RSV): inhibition of a plaque assay with human RSV
effect on HSV1 infection [5]: reduces Herpes Simplex Virus Type 1 (HSV1) infection
IC50 (infectivity), HIV-1 Antiviral Assay (HIV-1 LAI [6]): 0.009 ng/mL
HIV Infectivity in HeLa CD4 βgal cells (β-galactosidase units) (HIV-1 LAI [6]; 0.0001 ng/mL): 1,159,421 RLU and 1,143,347 RLU
HIV Infectivity in HeLa-CD4-βgal cells (% vehicle) (HIV-1 LAI [6]; 0.0001 ng/mL): 101.4 % vehicle
HIV Infectivity in HeLa-CD4-βgal cells (% vehicle) (HIV-1 LAI [6]; 0.001 ng/mL): 91.9 % vehicle
HIV Infectivity in HeLa CD4 βgal cells (β-galactosidase units) (HIV-1 LAI [6]; 0.01 ng/mL): 729,428 RLU and 754,356 RLU
HIV Infectivity in HeLa-CD4-βgal cells (% vehicle) (HIV-1 LAI [6]; 0.01 ng/mL): 65.2 % vehicle
HIV Infectivity in HeLa CD4 βgal cells (β-galactosidase units) (HIV-1 LAI [6]; 0.1 ng/mL): 505,696 RLU and 431,727 RLU
HIV Infectivity in HeLa-CD4-βgal cells (% vehicle) (HIV-1 LAI [6]; 0.1 ng/mL): 41.1 % vehicle
HIV Infectivity in HeLa CD4 βgal cells (β-galactosidase units) (HIV-1 LAI [6]; 1.0 ng/mL): 338,683 RLU and 353,822 RLU
HIV Infectivity in HeLa-CD4-βgal cells (% vehicle) (HIV-1 LAI [6]; 1.0 ng/mL): 30.3 % vehicle
HIV Infectivity in HeLa CD4 βgal cells (β-galactosidase units) (HIV-1 LAI [6]; 10 ng/mL): 292,575 RLU and 343,225 RLU
HIV Infectivity in HeLa-CD4-βgal cells (% vehicle) (HIV-1 LAI [6]; 10 ng/mL): 27.8 % vehicle
HIV Infectivity in HeLa CD4 βgal cells (β-galactosidase units) (HIV-1 LAI [6]; 100 ng/mL): 289,671 RLU and 320,902 RLU
HIV Infectivity in HeLa-CD4-βgal cells (% vehicle) (HIV-1 LAI [6]; 100 ng/mL): 26.7 % vehicle
HIV Infectivity in HeLa CD4 βgal cells (β-galactosidase units) (HIV-1 LAI [6]; 1,000 ng/mL): 340,382 RLU and 330,715 RLU
HIV Infectivity in HeLa-CD4-βgal cells (% vehicle) (HIV-1 LAI [6]; 1,000 ng/mL): 29.4 % vehicle
HIV Infectivity in HeLa CD4 βgal cells (β-galactosidase units) (HIV-1 LAI [6]; 10,000 ng/mL): 363,841 RLU and 344,014 RLU
HIV Infectivity in HeLa-CD4-βgal cells (% vehicle) (HIV-1 LAI [6]; 10,000 ng/mL): 31.0 % vehicle
CC50, Cytotoxicity Assay (HeLa-CD4-βgal cells) (HeLa-CD4-βgal cells [7]): >10000 ng/mL
CC50, Cytotoxicity Assay (Hep-2 cells) (HEp-2 cells): >10000 ng/mL
CC50, Cytotoxicity Assay (uninfected HeLa-CD4-Bgal cells) (HeLa-CD4-βgal cells [8]): >10000 ng/mL
